Positions of bridges follow the written chain, without caps; N, C: chain ends. Non-standard residues stand in square brackets, D forms with d. Phe(3,4-(OMe)2) = COc1ccc(C[C@H](N)C(=O)O)cc1OC; Phe(3,4-Cl2) = N[C@@H](Cc1ccc(Cl)c(Cl)c1)C(=O)O; Phe(4-CN) = N#Cc1ccc(C[C@H](N)C(=O)O)cc1; 1Nal = N[C@@H](Cc1cccc2ccccc12)C(=O)O; 2Nal = N[C@@H](Cc1ccc2ccccc2c1)C(=O)O; Hyp = O=C(O)[C@@H]1C[C@@H](O)CN1; Cit = NC(=O)NCCC[C@H](N)C(=O)O; Thz = O=C(O)[C@@H]1CSCN1; Sar = CNCC(=O)O
B1: Chem. 70 (peptide)
peptide: cyclo(C[Hyp]H[dF]HWCAKKKW)
modifications: disulfide 1-7
SMILES: C[C@@H]1NC(=O)[C@@H]2CSSC[C@H](NC(=O)[C@H](Cc3c[nH]c4ccccc34)NC(=O)[C@H](CCCCN)NC(=O)[C@H](CCCCN)NC(=O)[C@H](CCCCN)NC1=O)C(=O)N1C[C@H](O)C[C@H]1C(=O)N[C@@H](Cc1c[nH]cn1)C(=O)N[C@H](Cc1ccccc1)C(=O)N[C@@H](Cc1c[nH]cn1)C(=O)N[C@@H](Cc1c[nH]c3ccccc13)C(=O)N2
notes: also called c[c[Cys-Hyp-His-D-Phe-His-Trp-Cys]-Ala-Lys-Lys-Lys-Trp]
B2: Chem. 7 (peptide)
peptide: cyclo(AAH[dF]RWAAH[dF]RW)
SMILES: C[C@@H]1NC(=O)[C@H](C)NC(=O)[C@H](Cc2c[nH]c3ccccc23)NC(=O)[C@H](CCCNC(=N)N)NC(=O)[C@@H](Cc2ccccc2)NC(=O)[C@H](Cc2c[nH]cn2)NC(=O)[C@H](C)NC(=O)[C@H](C)NC(=O)[C@H](Cc2c[nH]c3ccccc23)NC(=O)[C@H](CCCNC(=N)N)NC(=O)[C@@H](Cc2ccccc2)NC(=O)[C@H](Cc2c[nH]cn2)NC1=O
notes: also called c[Ala-Ala-His-D-Phe-Arg-Trp-Ala-Ala-His-D-Phe-Arg-Trp]
B3: Chem. 67 (peptide)
peptide: cyclo(CAH[dF]R[Phe(3,4-(OMe)2)]CAKKKW)
modifications: disulfide 1-7
SMILES: COc1ccc(C[C@@H]2NC(=O)[C@H](CCCNC(=N)N)NC(=O)[C@@H](Cc3ccccc3)NC(=O)[C@H](Cc3c[nH]cn3)NC(=O)[C@H](C)NC(=O)[C@@H]3CSSC[C@H](NC2=O)C(=O)N[C@@H](C)C(=O)N[C@@H](CCCCN)C(=O)N[C@@H](CCCCN)C(=O)N[C@@H](CCCCN)C(=O)N[C@@H](Cc2c[nH]c4ccccc24)C(=O)N3)cc1OC
notes: also called c[c[Cys-Ala-His-D-Phe-Arg-3,4-DiMeo-Phe-Cys]-Ala-Lys-Lys-Lys-Trp]
B4: Chem. 69 (peptide)
peptide: cyclo(CAH[dF]RWRCAH[dF]RWR)
modifications: disulfide 1-8
SMILES: C[C@@H]1NC(=O)[C@@H]2CSSC[C@H](NC(=O)[C@H](CCCNC(=N)N)NC(=O)[C@H](Cc3c[nH]c4ccccc34)NC(=O)[C@H](CCCNC(=N)N)NC(=O)[C@@H](Cc3ccccc3)NC(=O)[C@H](Cc3c[nH]cn3)NC1=O)C(=O)N[C@@H](C)C(=O)N[C@@H](Cc1c[nH]cn1)C(=O)N[C@H](Cc1ccccc1)C(=O)N[C@@H](CCCNC(=N)N)C(=O)N[C@@H](Cc1c[nH]c3ccccc13)C(=O)N[C@@H](CCCNC(=N)N)C(=O)N2
notes: also called c[c[Cys-Ala-His-D-Phe-Arg-Trp-Arg-Cys]-Ala-His-D-Phe-Arg-Trp-Arg]
B5: Chem. 68 (peptide)
peptide: cyclo(CH[dF]RWRCH[dF]RWR)
modifications: disulfide 1-7
SMILES: N=C(N)NCCC[C@@H]1NC(=O)[C@H](Cc2c[nH]c3ccccc23)NC(=O)[C@H](CCCNC(=N)N)NC(=O)[C@@H](Cc2ccccc2)NC(=O)[C@H](Cc2c[nH]cn2)NC(=O)[C@@H]2CSSC[C@H](NC1=O)C(=O)N[C@@H](Cc1c[nH]cn1)C(=O)N[C@H](Cc1ccccc1)C(=O)N[C@@H](CCCNC(=N)N)C(=O)N[C@@H](Cc1c[nH]c3ccccc13)C(=O)N[C@@H](CCCNC(=N)N)C(=O)N2
notes: also called c[c[Cys-His-D-Phe-Arg-Trp-Arg-Cys]-His-D-Phe-Arg-Trp-Arg]
B6: Chem. 79 (peptide)
peptide: cyclo(CAH[dF]R[2Nal]CAKKKW)
modifications: disulfide 1-7
SMILES: C[C@@H]1NC(=O)[C@@H]2CSSC[C@H](NC(=O)[C@H](Cc3ccc4ccccc4c3)NC(=O)[C@H](CCCNC(=N)N)NC(=O)[C@@H](Cc3ccccc3)NC(=O)[C@H](Cc3c[nH]cn3)NC1=O)C(=O)N[C@@H](C)C(=O)N[C@@H](CCCCN)C(=O)N[C@@H](CCCCN)C(=O)N[C@@H](CCCCN)C(=O)N[C@@H](Cc1c[nH]c3ccccc13)C(=O)N2
notes: also called c[c[Cys-Ala-His-D-Phe-Arg-2-Nal-Cys]-Ala-Lys-Lys-Lys-Trp]
B7: Chem. 66 (peptide)
peptide: cyclo(CAH[dF]R[Phe(3,4-Cl2)]CAKKKW)
modifications: disulfide 1-7
SMILES: C[C@@H]1NC(=O)[C@@H]2CSSC[C@H](NC(=O)[C@H](Cc3ccc(Cl)c(Cl)c3)NC(=O)[C@H](CCCNC(=N)N)NC(=O)[C@@H](Cc3ccccc3)NC(=O)[C@H](Cc3c[nH]cn3)NC1=O)C(=O)N[C@@H](C)C(=O)N[C@@H](CCCCN)C(=O)N[C@@H](CCCCN)C(=O)N[C@@H](CCCCN)C(=O)N[C@@H](Cc1c[nH]c3ccccc13)C(=O)N2
notes: also called c[c[Cys-Ala-His-D-Phe-Arg-3,4-DiCl-Phe-Cys]-Ala-Lys-Lys-Lys-Trp]
B8: Chem. 63 (peptide)
peptide: XAHFRWCAHXRW
modifications: Pen 1; D-Phe 4, 10; disulphide Pen1-Cys7; head-to-tail amide Pen1-Trp12
notes: also called c[c[Pen-Ala-His-D-Phe-Arg-Trp-Cys]-Ala-His-D-Phe-Arg-Trp]
B9: Chem. 73 (peptide)
peptide: cyclo(C[Sar]H[dF]HWCAKKKW)
modifications: disulfide 1-7
SMILES: C[C@@H]1NC(=O)[C@@H]2CSSC[C@H](NC(=O)[C@H](Cc3c[nH]c4ccccc34)NC(=O)[C@H](CCCCN)NC(=O)[C@H](CCCCN)NC(=O)[C@H](CCCCN)NC1=O)C(=O)N(C)CC(=O)N[C@@H](Cc1c[nH]cn1)C(=O)N[C@H](Cc1ccccc1)C(=O)N[C@@H](Cc1c[nH]cn1)C(=O)N[C@@H](Cc1c[nH]c3ccccc13)C(=O)N2
notes: also called c[c[Cys-Sar-His-D-Phe-His-Trp-Cys]-Ala-Lys-Lys-Lys-Trp]
B10: Chem. 72 (peptide)
peptide: cyclo(CPH[dF][Cit]WCAKKKR)
modifications: disulfide 1-7
SMILES: C[C@@H]1NC(=O)[C@@H]2CSSC[C@H](NC(=O)[C@H](CCCNC(=N)N)NC(=O)[C@H](CCCCN)NC(=O)[C@H](CCCCN)NC(=O)[C@H](CCCCN)NC1=O)C(=O)N1CCC[C@H]1C(=O)N[C@@H](Cc1c[nH]cn1)C(=O)N[C@H](Cc1ccccc1)C(=O)N[C@@H](CCCNC(N)=O)C(=O)N[C@@H](Cc1c[nH]c3ccccc13)C(=O)N2
notes: Printed shorthand is identical to that of Chem. 99; the drawings may differ; also called c[c[Cys-Pro-His-D-Phe-Cit-Trp-Cys]-Ala-Lys-Lys-Lys-Arg]
B11: Chem. 81 (peptide)
peptide: cyclo(C[Thz]H[dF]HWCAKKKW)
modifications: disulfide 1-7
SMILES: C[C@@H]1NC(=O)[C@@H]2CSSC[C@H](NC(=O)[C@H](Cc3c[nH]c4ccccc34)NC(=O)[C@H](CCCCN)NC(=O)[C@H](CCCCN)NC(=O)[C@H](CCCCN)NC1=O)C(=O)N1CSC[C@H]1C(=O)N[C@@H](Cc1c[nH]cn1)C(=O)N[C@H](Cc1ccccc1)C(=O)N[C@@H](Cc1c[nH]cn1)C(=O)N[C@@H](Cc1c[nH]c3ccccc13)C(=O)N2
notes: also called c[c[Cys-THAZ-His-D-Phe-His-Trp-Cys]-Ala-Lys-Lys-Lys-Trp]
B12: Chem. 64 (peptide)
peptide: cyclo(CAH[dF]R[1Nal]CAKKKW)
modifications: disulfide 1-7
SMILES: C[C@@H]1NC(=O)[C@@H]2CSSC[C@H](NC(=O)[C@H](Cc3cccc4ccccc34)NC(=O)[C@H](CCCNC(=N)N)NC(=O)[C@@H](Cc3ccccc3)NC(=O)[C@H](Cc3c[nH]cn3)NC1=O)C(=O)N[C@@H](C)C(=O)N[C@@H](CCCCN)C(=O)N[C@@H](CCCCN)C(=O)N[C@@H](CCCCN)C(=O)N[C@@H](Cc1c[nH]c3ccccc13)C(=O)N2
notes: also called c[c[Cys-Ala-His-D-Phe-Arg-1-Nal-Cys]-Ala-Lys-Lys-Lys-Trp]
B13: Chem. 65 (peptide)
peptide: cyclo(CAH[dF]R[Phe(4-CN)]CAKKKW)
modifications: disulfide 1-7
SMILES: C[C@@H]1NC(=O)[C@@H]2CSSC[C@H](NC(=O)[C@H](Cc3ccc(C#N)cc3)NC(=O)[C@H](CCCNC(=N)N)NC(=O)[C@@H](Cc3ccccc3)NC(=O)[C@H](Cc3c[nH]cn3)NC1=O)C(=O)N[C@@H](C)C(=O)N[C@@H](CCCCN)C(=O)N[C@@H](CCCCN)C(=O)N[C@@H](CCCCN)C(=O)N[C@@H](Cc1c[nH]c3ccccc13)C(=O)N2
notes: also called c[c[Cys-Ala-His-D-Phe-Arg-4-CN-Phe-Cys]-Ala-Lys-Lys-Lys-Trp]

Legend:
[1] = target: T1, human melanocortin 4 receptor (human, UniProt P32245 1-332); test: competition with 125-NDP-α-MSH, BHK human MC4R membranes
T1 construct: whole, on cells; cAMP assay on whole BHK cells; also called MC4R; human MC4 receptor
T1 sequence (P32245 whole entry): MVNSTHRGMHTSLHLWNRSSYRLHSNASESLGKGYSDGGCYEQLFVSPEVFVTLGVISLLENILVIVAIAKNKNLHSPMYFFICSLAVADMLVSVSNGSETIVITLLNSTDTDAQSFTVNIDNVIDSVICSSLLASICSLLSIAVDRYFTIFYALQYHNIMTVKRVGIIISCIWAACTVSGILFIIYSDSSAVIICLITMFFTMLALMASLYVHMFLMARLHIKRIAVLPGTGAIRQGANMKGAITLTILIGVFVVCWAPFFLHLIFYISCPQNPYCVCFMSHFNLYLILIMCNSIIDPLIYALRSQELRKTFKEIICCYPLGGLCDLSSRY
Protocol: In order to assess the binding affinity of the selected compounds for the human MC4R competitive binding assays was performed with radiolabeled NDP-alpha MSH (¹²⁵NDP-α-MSH).
The assay was performed in 96-well filterplates (Unifilter) using BHK cells stably expressing the human MC4 receptor.
The BHK cell membranes were prepared from frozen or fresh cells that were homogenized in 20 mM HEPES pH 7.1, 5 mM MgCl₂, 1 mg/ml bacitracin (buffer 1) and centrifuged at 15000 rpm at 4° C., 10 min in a Sorvall RC 5B plus, SS-34 rotor. The supernatant was discarded, and the pellets were re-suspended in buffer 1, homogenized and centrifuged two more times. The final pellets were re-suspended in buffer 1 and the protein concentration was measured and adjusted with buffer 1 to 5 mg/ml and the membrane preparation was kept at −80° C. until assay. The assay was run on a dilution of this cell membrane suspension without any further preparation. The suspension was diluted to give maximally 10% specific binding, i.e. to approx. 50-100 fold dilution, optimized after each membrane preparation. The assay was performed in a total volume of 200 μl: 50 μl of cell suspension, 50 μl of ¹²⁵NDP-α-MSH (apx. […] in final concentration), 50 μl of test compound and 50 μl binding buffer were mixed and incubated for 2 h at 25° C. (binding buffer: 25 mM HEPES, pH 7.0, 1 mM CaCl₂), 1 mM MgSO₄, 1 mM EGTA, 0.005% Tween™ 20 and 0.1% HSA or, alternatively, 0.1% ovalbumin (Sigma; catalogue No. A-5503)). Test compounds were dissolved in 100% DMSO and diluted in binding buffer in a dose range from 1 μM to 0.001 nM. Radiolabelled ligand and membranes were diluted in binding buffer. The incubation was stopped by dilution with 8×100 μl ice-cold 0.9% NaCl. The radioactivity retained on the filters was counted using a Packard Topcounter. The data were analysed by non-linear regression analysis of binding curves, using the Windows™ program GraphPad™ Prism (GraphPad Software, USA).

[2] = target: human melanocortin 1 receptor (human, UniProt Q01726 1-317); test: cell-based or functional assay
human melanocortin 1 receptor, sequence (Q01726 whole entry): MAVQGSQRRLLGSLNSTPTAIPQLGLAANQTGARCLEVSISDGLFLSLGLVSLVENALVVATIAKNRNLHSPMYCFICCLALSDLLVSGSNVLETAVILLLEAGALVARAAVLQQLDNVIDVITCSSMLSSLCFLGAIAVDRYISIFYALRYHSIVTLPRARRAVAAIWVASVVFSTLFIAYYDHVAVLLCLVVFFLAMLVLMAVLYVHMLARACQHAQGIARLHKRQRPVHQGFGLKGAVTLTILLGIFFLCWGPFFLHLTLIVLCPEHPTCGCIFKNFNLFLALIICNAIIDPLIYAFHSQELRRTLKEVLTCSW

[3] = target: T1, human melanocortin 4 receptor; test: cell-based or functional assay

Row | Binder | Ki [1] | MC1R cAMP EC50 [2] | MC4R cAMP EC50 [3]
1 | B1 | 0.07 nM | 75.7 nM | 0.38 nM
2 | B2 | 0.47 nM | 4.56 nM | 0.06 nM
3 | B3 | 0.95 nM | > 55 nM | 2.99 nM
4 | B4 | 4.65 nM | 6.9 nM | 1.52 nM
5 | B5 | 10.4 nM | 4.87 nM | 4.35 nM
6 | B6 | 0.03 nM | 1.16 nM | 0.02 nM
7 | B7 | 0.03 nM | 0.22 nM | 0.01 nM
8 | B8 | 0.08 nM | 0.84 nM | 0.02 nM
9 | B9 | 0.3 nM | > 50 nM | 1.26 nM
10 | B10 | 0.03 nM | 5.86 nM | 0.03 nM
11 | B11 | 0.03 nM | 67 nM | 0.07 nM
12 | B12 | 0.09 nM | 4.23 nM | 0.03 nM
13 | B13 | 0.47 nM | 10.8 nM | 0.42 nM

Reference: US20200223889A1 (Novo Nordisk, published 2020)
